Measured values as given in patent publication US20220387586A1 (Hoffmann-La Roche, published 2022).

T1: recombinant Human LAG-3 Fc Chimera Protein (R&D Systems, 2319-L3) (human, UniProt P18627 29-450)
T1 construct: Bought protein; also called huLAG3; not shown: Fc part of the chimera
T1 sequence: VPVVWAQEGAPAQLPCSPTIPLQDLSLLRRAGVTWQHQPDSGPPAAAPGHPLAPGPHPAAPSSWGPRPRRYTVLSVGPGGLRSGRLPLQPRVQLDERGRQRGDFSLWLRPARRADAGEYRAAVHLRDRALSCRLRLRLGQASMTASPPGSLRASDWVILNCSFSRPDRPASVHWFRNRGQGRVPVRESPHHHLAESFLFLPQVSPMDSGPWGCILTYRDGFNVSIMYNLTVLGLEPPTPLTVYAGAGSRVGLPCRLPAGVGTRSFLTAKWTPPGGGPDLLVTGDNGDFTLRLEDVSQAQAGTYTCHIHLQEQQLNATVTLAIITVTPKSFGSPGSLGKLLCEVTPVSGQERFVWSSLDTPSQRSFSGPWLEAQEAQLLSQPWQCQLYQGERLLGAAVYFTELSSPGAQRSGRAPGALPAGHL

T2: LAG3 on cells (recombinant CHO cells expressing Lag3) (human, UniProt P18627 29-525)
T2 construct: The cell ELISA paragraphs say only 'Lag3'; also called CHO-LAG3; Lag3 cells
T2 sequence: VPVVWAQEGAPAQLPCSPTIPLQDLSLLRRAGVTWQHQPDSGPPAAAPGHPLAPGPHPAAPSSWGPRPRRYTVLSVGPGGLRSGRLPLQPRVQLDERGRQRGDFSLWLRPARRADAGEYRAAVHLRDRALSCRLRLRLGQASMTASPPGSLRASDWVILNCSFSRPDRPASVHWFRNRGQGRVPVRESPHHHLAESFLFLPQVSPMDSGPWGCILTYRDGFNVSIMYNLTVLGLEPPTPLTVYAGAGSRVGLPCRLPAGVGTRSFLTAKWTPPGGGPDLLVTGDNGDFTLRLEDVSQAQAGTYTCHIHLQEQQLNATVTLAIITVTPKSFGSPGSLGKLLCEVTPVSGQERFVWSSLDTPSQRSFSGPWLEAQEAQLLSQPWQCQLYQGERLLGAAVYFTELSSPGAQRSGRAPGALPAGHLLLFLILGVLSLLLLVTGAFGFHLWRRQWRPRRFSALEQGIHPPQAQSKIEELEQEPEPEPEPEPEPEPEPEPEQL

T3: biotinylated-Lag3 (UniProt P18627 23-450, limits assumed, biotinylated)
T3 construct: Probably a human LAG3 ECD construct; also called Lag3 (MHCII/ELISA)
T3 sequence (looked up): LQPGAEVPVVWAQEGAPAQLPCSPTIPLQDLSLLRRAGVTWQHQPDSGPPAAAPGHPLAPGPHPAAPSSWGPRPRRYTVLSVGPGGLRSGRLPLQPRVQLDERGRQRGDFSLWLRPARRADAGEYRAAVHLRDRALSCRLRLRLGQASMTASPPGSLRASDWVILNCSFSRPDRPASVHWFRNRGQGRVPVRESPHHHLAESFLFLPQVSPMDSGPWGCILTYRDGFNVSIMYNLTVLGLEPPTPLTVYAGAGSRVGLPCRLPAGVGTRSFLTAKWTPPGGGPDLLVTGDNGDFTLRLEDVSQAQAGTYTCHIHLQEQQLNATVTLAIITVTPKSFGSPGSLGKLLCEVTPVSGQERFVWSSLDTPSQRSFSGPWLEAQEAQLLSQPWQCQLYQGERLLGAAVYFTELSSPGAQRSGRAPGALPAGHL


What was measured:
[1] = target: T1, recombinant Human LAG-3 Fc Chimera …; assay: ELISA on coated Human LAG-3 Fc Chimera (rel. EC50)
Experimental: After washing (3×90 μl/well with PBST-buffer) each well was incubated with 90 μl blocking buffer (PBS+2% BSA+0.05% Tween 20) for 1 h at room temperature. […] After washing (3×90 μl/well with PBST-buffer) 25 μl/well goat anti-Human Ig κ chain antibody-HRP conjugate (Milipore, AP502P) was added in a 1:2000 dilution and incubated at RT for 1 h. After washing (3×90 μl/well with PBST-buffer) 25 μl/well TMB substrate (Roche, 11835033001) was added and incubated for 2-10 min. Measurement took place on a Tecan Safire 2 instrument at 370/492 nm.

[2] = target: T4, biotinylated PD1-ECD-AviHis (human, UniProt Q15116 25-170, biotinylated); assay: ELISA on coated biotinylated PD1-ECD-AviHis (rel. EC50)
T4 construct: also called huPD1; hu PD1; not shown: Avi-His tag
T4 sequence (Q15116 25-170): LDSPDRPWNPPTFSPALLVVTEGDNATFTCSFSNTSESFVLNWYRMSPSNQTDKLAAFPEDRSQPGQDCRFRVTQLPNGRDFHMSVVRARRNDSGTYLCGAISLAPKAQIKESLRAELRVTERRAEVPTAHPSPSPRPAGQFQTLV
Experimental: After washing (3×90 μl/well with PBST-buffer) 25 μl/well goat-anti-human H+L-POD (JIR, JIR109-036-098) was added in 1:5000 dilution and incubated at RT for 1 h on a shaker. After washing (3×90 μl/well with PBST-buffer) 25 μl/well of TMB substrate (Roche, 11835033001) was added and incubated until OD 2-3. Measurement took place at 370/492 nm.

[3] = target: T2, LAG3 on cells (recombinant CHO cells …); assay: cell ELISA on recombinant CHO cells expressing Lag3 (rel. EC50)
Experimental: After washing (1×90 μl in PBST) cells were fixed by addition of 30 μl/well glutaraldehyde to a final concentration of 0.05% (Sigma Cat.No: G5882), 10 min at room temperature. After washing (3×90 μl/well with PBST-buffer) 25 μl/well goat anti-Human Ig κ chain antibody-HRP conjugate (Milipore, AP502P) was added in a 1:1000 dilution and incubated at RT for 1 h. After washing (3×90 μl/well with PBST-buffer) 25 μl/well TMB substrate (Roche, 11835033001) was added and incubated for 6-10 min. Measurement took place on a Tecan Safire 2 instrument at 370/492 nm.

[4] = target: T5, full-length human PD1 on cells (human, UniProt Q15116 25-288); assay: cell ELISA on CHO-K1 cells expressing full-length human PD1 (rel. EC50)
T5 construct: also called CHO-PD1
T5 sequence (Q15116 25-288 limits assumed): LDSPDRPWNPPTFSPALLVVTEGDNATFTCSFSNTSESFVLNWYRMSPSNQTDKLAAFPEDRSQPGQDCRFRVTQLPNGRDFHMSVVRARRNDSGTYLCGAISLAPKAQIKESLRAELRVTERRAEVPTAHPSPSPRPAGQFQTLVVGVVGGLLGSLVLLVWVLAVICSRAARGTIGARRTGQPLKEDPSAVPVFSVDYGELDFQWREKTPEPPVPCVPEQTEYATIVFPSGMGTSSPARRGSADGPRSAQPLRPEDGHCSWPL
Experimental: (to avoid internalization). After washing carefully (1×90 μl/well PBST) cells were fixed by adding 30 μl/well 0.05% Glutaraldehyde (Sigma, Cat.No: G5882, 25%) diluted in 1×PBS-buffer and incubated for 10 min at RT. After washing (3×90 μl/well PBST) 25 μl/well secondary antibody was added for detection: goat-anti-human H+L-POD (JIR, JIR109-036-088)/Sheep-anti-mouse-POD (GE NA9310) followed by 1 h incubation at RT on shaker. After washing (3×90 μl/well PBST) 25 μl/well TMB substrate solution (Roche 11835033001) was added and incubated until OD 1.0-2.0. Plates were measured at 370/492 nm.

biotinylated-Lag3 = target: T3, biotinylated-Lag3; assay: ELISA, inhibition of biotinylated-Lag3 binding to MHC-II on A375 cells (competitor MHC-II)
Experimental: 25 μl/well of A375 cells (10000 cells/well) were seeded into tissue culture treated 384-well plates (Corning, 3701) and incubated at 37° C. overnight. […] After washing (1×90 μl in PBST) cells were fixed by addition of 30 μl/well glutaraldehyde to a final concentration of 0.05% (Sigma Cat.No: G5882), 10 min at room temperature. After washing (3×90 μl/well with PBST-buffer) 25 μl/well Poly-HRP40-Streptavidin (Fitzgerald, 65R-S104PHRPx) was added in a 1:2000 or 1:8000 dilution and incubated at RT for 1 h. After washing (3×90 μl/well with PBST-buffer) 25 μl/well TMB substrate (Roche, 11835033001) was added and incubated for 2 to 10 min. Measurement took place on a Tecan Safire 2 instrument at 370/492 nm.

Row | Binder | EC50 [1] [nM] | EC50 [2] [nM] | EC50 [3] [nM] | EC50 [4] [nM] | IC50 (biotinylated-Lag3) [nM]
1 | PD1/LAG3 0222 (bispecific antibody, human IgG1, kappa, L234A L235A, 1+1 CrossMAb Vh-VL; also called PD1(0069)/aLAG3(25F7) 1+1; PD1-0069/LAG3 25F7 (1 + 1)) heavy 1: not shown heavy 2: QVQLQQWGAGLLKPSETLSLTCAVYGGSFSDYYWNWIRQPPGKGLEWIGEINHNGNTNSNPSLKSRVTLSLDTSKNQFSLKLRSVTAADTAVYYCAFGYSDYEYNWFDPWGQGTLVTVSSASTKGPSVFPLAPSSKSTSGGTAALGCLVEDYFPEPVTVSWNSGALTSGVHTFPAVLQSSGLYSLSSVVTVPSSSLGTQTYICNVNHKPSNTKVDEKVEPKSCDKTHTCPPCPAPEAAGGPSVFLFPPKPKDTLMISRTPEVTCVVVDVSHEDPEVKFNWYVDGVEVHNAKTKPREEQYNSTYRVVSVLTVLHQDWLNGKEYKCKVSNKALGAPIEKTISKAKGQPREPQVCTLPPSRDELTKNQVSLSCAVKGFYPSDIAVEWESNGQPENNYKTTPPVLDSDGSFFLVSKLTVDKSRWQQGNVFSCSVMHEALHNHYTQKSLSLSPGK light 1: QVQLQQSGPELVRPGVSVKISCKGSGYTFTDYAMHWVKQSHARTLEWIGVISTYSGDTNYNQKFKDKATMTVDKSSSTAYLELARMTSEDSAIYYCARLGITTGFAYWGQGTLVTVSAASVAAPSVFIFPPSDEQLKSGTASVVCLLNNFYPREAKVQWKVDNALQSGNSQESVTEQDSKDSTYSLSSTLTLSKADYEKHKVYACEVTHQGLSSPVTKSFNRGEC light 2: not shown | 1.14 | 0.16 | 0.72 | 0.28 | 0.77
2 | PD1/LAG3 0224 (bispecific antibody, human IgG1, kappa, L234A L235A, 1+1 CrossMAb Vh-VL; also called PD1(0098)/aLAG3(25F7) 1+1; PD1-0098/LAG3 25F7 (1 + 1)) heavy 1: not shown heavy 2: QVQLQQWGAGLLKPSETLSLTCAVYGGSFSDYYWNWIRQPPGKGLEWIGEINHNGNTNSNPSLKSRVTLSLDTSKNQFSLKLRSVTAADTAVYYCAFGYSDYEYNWFDPWGQGTLVTVSSASTKGPSVFPLAPSSKSTSGGTAALGCLVEDYFPEPVTVSWNSGALTSGVHTFPAVLQSSGLYSLSSVVTVPSSSLGTQTYICNVNHKPSNTKVDEKVEPKSCDKTHTCPPCPAPEAAGGPSVFLFPPKPKDTLMISRTPEVTCVVVDVSHEDPEVKFNWYVDGVEVHNAKTKPREEQYNSTYRVVSVLTVLHQDWLNGKEYKCKVSNKALGAPIEKTISKAKGQPREPQVCTLPPSRDELTKNQVSLSCAVKGFYPSDIAVEWESNGQPENNYKTTPPVLDSDGSFFLVSKLTVDKSRWQQGNVFSCSVMHEALHNHYTQKSLSLSPGK light 1: DVQLQESGPGLVKPSQSLSLTCTVTGYSITSDYAWNWIRQFPGDKLEWLGYITYSGFTNYNPSLKSRISISRDTSKNQFFLQLNSVATEDTATYYCARWHGSAPWYFDYWGRGTTLTVSSASVAAPSVFIFPPSDEQLKSGTASVVCLLNNFYPREAKVQWKVDNALQSGNSQESVTEQDSKDSTYSLSSTLTLSKADYEKHKVYACEVTHQGLSSPVTKSFNRGEC light 2: not shown | 0.86 | 0.04 | 0.86 | 0.06 | 0.79
3 | PD1/LAG3 9010 (bispecific antibody, human IgG1, kappa, L234A L235A, 2+2 format) heavy: not shown light 1: DIVMTQSPDSLAVSLGERATINCKASESVDTSDNSFIHWYQQKPGQSPKLLIYRSSTLESGVPDRFSGSGSGTDFTLTISSLQAEDVAVYYCQQNYDVPWTFGQGTKVEIKSSASTKGPSVFPLAPSSKSTSGGTAALGCLVKDYFPEPVTVSWNSGALTSGVHTFPAVLQSSGLYSLSSVVTVPSSSLGTQTYICNVNHKPSNTKVDKKVEPKSC light 2: not shown | 0.05 | 0.04 | 0.48 | 0.36 | 0.52
